Laboratory results taken from IntAct's records for PubMed 31515488.

B1: Syntenin-2 (Homo sapiens), Q9H190 (parent)
chain: MSSLYPSLEDLKVDQAIQAQVRASPKMPALPVQATAISPPPVLYPNLAELENYMGLSLSSQEVQESLLQIPEGDSTAVSGPGPGQMVAPVTGYSLGVRRAEIKPGVREIHLCKDERGKTGLRLRKVDQGLFVQLVQANTPASLVGLRFGDQLLQIDGRDCAGWSSHKAHQVVKKASGDKIVVVVRDRPFQRTVTMHKDSMGHVGFVIKKGKIVSLVKGSSAARNGLLTNHYVCEVDGQNVIGLKDKKIMEILATAGNVVTLTIIPSVIYEHMVKKLPPVLLHHTMDHSIPDA
partner: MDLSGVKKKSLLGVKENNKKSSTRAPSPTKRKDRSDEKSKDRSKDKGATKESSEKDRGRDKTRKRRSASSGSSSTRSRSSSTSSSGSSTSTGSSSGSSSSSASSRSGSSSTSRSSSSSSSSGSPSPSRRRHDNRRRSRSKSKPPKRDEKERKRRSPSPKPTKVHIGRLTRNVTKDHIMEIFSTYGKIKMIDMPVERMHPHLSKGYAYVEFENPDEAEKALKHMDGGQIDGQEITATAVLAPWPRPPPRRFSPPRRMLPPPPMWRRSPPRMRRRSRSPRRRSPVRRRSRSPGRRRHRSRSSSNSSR
B2: Serine/threonine-protein kinase PAK 5 (Homo sapiens), Q9P286 (parent)
chain: MFGKKKKKIEISGPSNFEHRVHTGFDPQEQKFTGLPQQWHSLLADTANRPKPMVDPSCITPIQLAPMKTIVRGNKPCKETSINGLLEDFDNISVTRSNSLRKESPPTPDQGASSHGPGHAEENGFITFSQYSSESDTTADYTTEKYREKSLYGDDLDPYYRGSHAAKQNGHVMKMKHGEAYYSEVKPLKSDFARFSADYHSHLDSLSKPSEYSDLKWEYQRASSSSPLDYSFQFTPSRTAGTSGCSKESLAYSESEWGPSLDDYDRRPKSSYLNQTSPQPTMRQRSRSGSGLQEPMMPFGASAFKTHPQGHSYNSYTYPRLSEPTMCIPKVDYDRAQMVLSPPLSGSDTYPRGPAKLPQSQSKSGYSSSSHQYPSGYHKATLYHHPSLQSSSQYISTASYLSSLSLSSSTYPPPSWGSSSDQQPSRVSHEQFRAALQLVVSPGDPREYLANFIKIGEGSTGIVCIATEKHTGKQVAVKKMDLRKQQRRELLFNEVVIMRDYHHDNVVDMYSSYLVGDELWVVMEFLEGGALTDIVTHTRMNEEQIATVCLSVLRALSYLHNQGVIHRDIKSDSILLTSDGRIKLSDFGFCAQVSKEVPKRKSLVGTPYWMAPEVISRLPYGTEVDIWSLGIMVIEMIDGEPPYFNEPPLQAMRRIRDSLPPRVKDLHKVSSVLRGFLDLMLVREPSQRATAQELLGHPFLKLAGPPSCIVPLMRQYRHH
partner: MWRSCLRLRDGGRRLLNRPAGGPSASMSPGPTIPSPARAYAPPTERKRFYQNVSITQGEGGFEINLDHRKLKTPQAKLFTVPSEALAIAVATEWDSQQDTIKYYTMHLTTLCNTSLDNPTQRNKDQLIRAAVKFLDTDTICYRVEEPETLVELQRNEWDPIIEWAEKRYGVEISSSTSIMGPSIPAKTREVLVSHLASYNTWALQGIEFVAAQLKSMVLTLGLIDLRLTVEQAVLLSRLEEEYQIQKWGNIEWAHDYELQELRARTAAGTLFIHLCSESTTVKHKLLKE
B3: Transmembrane protein 187 (Homo sapiens), Q14656 (parent)
chain: MNPEWGQAFVHVAVAGGLCAVAVFTGIFDSVSVQVGYEHYAEAPVAGLPAFLAMPFNSLVNMAYTLLGLSWLHRGGAMGLGPRYLKDVFAAMALLYGPVQWLRLWTQWRRAAVLDQWLTLPIFAWPVAWCLYLDRGWRPWLFLSLECVSLASYGLALLHPQGFEVALGAHVVAAVGQALRTHRHYGSTTSATYLALGVLSCLGFVVLKLCDHQLARWRLFQCLTGHFWSKVCDVLQFHFAFLFLTHFNTHPRFHPSGGKTR
partner: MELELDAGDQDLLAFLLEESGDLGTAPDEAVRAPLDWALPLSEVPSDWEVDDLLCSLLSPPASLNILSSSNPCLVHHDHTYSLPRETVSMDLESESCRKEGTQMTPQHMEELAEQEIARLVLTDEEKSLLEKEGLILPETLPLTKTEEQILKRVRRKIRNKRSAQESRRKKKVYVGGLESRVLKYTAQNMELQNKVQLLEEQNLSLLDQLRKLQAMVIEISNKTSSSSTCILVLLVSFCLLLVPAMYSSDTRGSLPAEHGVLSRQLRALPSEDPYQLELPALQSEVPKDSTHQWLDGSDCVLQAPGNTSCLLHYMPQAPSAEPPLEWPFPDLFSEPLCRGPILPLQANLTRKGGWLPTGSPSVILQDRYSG
B4: Intraflagellar transport protein 27 homolog (Homo sapiens), Q9BW83 (parent)
chain: MVKLAAKCILAGDPAVGKTALAQIFRSDGAHFQKSYTLTTGMDLVVKTVPVPDTGDSVELFIFDSAGKELFSEMLDKLWESPNVLCLVYDVTNEESFNNCSKWLEKARSQAPGISLPGVLVGNKTDLAGRRAVDSAEARAWALGQGLECFETSVKEMENFEAPFHCLAKQFHQLYREKVEVFRALA
partner: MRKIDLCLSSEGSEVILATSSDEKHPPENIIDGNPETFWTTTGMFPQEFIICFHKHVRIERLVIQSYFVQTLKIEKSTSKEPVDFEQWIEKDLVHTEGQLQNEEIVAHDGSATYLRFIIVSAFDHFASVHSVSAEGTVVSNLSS
B5: Protein SSX3 (Homo sapiens), Q99909 (parent)
chain: MNGDDTFARRPTVGAQIPEKIQKAFDDIAKYFSKEEWEKMKVSEKIVYVYMKRKYEAMTKLGFKAILPSFMRNKRVTDFQGNDFDNDPNRGNQVQRPQMTFGRLQGIFPKIMPKKPAEEGNVSKEVPEASGPQNDGKQLCPPGKPTTSEKINMISGPKRGEHAWTHRLRERKQLVIYEEISDPEEDDE
partner: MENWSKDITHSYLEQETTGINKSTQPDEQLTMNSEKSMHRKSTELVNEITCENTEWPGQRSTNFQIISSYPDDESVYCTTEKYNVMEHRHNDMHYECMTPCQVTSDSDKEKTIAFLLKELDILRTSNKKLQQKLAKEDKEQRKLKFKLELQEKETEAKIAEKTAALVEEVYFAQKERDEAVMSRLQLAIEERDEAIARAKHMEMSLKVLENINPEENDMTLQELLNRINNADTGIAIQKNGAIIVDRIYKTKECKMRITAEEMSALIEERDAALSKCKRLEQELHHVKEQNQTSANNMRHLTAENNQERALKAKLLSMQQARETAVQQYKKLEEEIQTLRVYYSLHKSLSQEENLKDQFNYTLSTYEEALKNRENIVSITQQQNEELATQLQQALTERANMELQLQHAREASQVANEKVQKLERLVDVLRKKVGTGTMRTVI
B6: Carboxy-terminal domain RNA polymerase II polypeptide A small phosphatase 1 (Homo sapiens), Q9GZU7 (parent)
chain: MDSSAVITQISKEEARGPLRGKGDQKSAASQKPRSRGILHSLFCCVCRDDGEALPAHSGAPLLVEENGAIPKQTPVQYLLPEAKAQDSDKICVVIDLDETLVHSSFKPVNNADFIIPVEIDGVVHQVYVLKRPHVDEFLQRMGELFECVLFTASLAKYADPVADLLDKWGAFRARLFRESCVFHRGNYVKDLSRLGRDLRRVLILDNSPASYVFHPDNAVPVASWFDNMSDTELHDLLPFFEQLSRVDDVYSVLRQPRPGS
partner: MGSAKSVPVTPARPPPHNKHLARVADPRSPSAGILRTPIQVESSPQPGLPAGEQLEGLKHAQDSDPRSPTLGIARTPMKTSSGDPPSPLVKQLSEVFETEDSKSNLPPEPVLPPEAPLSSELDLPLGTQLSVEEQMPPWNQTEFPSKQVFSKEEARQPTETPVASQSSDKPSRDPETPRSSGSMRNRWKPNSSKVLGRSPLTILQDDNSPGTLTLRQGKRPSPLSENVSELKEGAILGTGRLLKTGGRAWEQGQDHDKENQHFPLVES
B7: BTB/POZ domain-containing protein KCTD6 (Homo sapiens), Q8NC69 (parent)
chain: MDNGDWGYMMTDPVTLNVGGHLYTTSLTTLTRYPDSMLGAMFGGDFPTARDPQGNYFIDRDGPLFRYVLNFLRTSELTLPLDFKEFDLLRKEADFYQIEPLIQCLNDPKPLYPMDTFEEVVELSSTRKLSKYSNPVAVIITQLTITTKVHSLLEGISNYFTKWNKHMMDTRDCQVSFTFGPCDYHQEVSLRVHLMEYITKQGFTIRNTRVHHMSERANENTVEHNWTFCRLARKTDD
B8: Vesicle transport protein SFT2B (Homo sapiens), O95562 (parent)
chain: MDKLKKVLSGQDTEDRSGLSEVVEASSLSWSTRIKGFIACFAIGILCSLLGTVLLWVPRKGLHLFAVFYTFGNIASIGSTIFLMGPVKQLKRMFEPTRLIATIMVLLCFALTLCSAFWWHNKGLALIFCILQSLALTWYSLSFIPFARDAVKKCFAVCLA
partner: B3 partner

Variants of: B1
Conditions: with rnps1_human RNPS1, Q15287

Q: How did the “effect of a mutation on the interaction” value turn out when V182M was run?
A: Its value is “with no effect”.

Q: G242R was tested. Which “effect of a mutation on the interaction” value did it give?
A: Its value is “disrupting interaction strength”.

Q: How did the “effect of a mutation on the interaction” value turn out when G225R was run?
A: Its value is “disrupting interaction strength”.

Variants of: B2
Conditions: with atpf2_human ATPAF2, Q8N5M1

Q: How did the “effect of a mutation on the interaction” value turn out when R335P was run?
A: The value was “with no effect”.

Variants of: B3
Conditions: with creb3_human CREB3, O43889

Q: R138Q was tested. Which “effect of a mutation on the interaction” value did it give?
A: Its value is “with no effect”.

Variants of: B4
Conditions: with ift25_human IFT25, Q9Y547

Q: How did the “effect of a mutation on the interaction” value turn out when A142V was run?
A: Its value is “disrupting interaction strength”.

Variants of: B5
Conditions: with mipo1_human MIPOL1, Q8TD10

Q: How did the “effect of a mutation on the interaction” value turn out when T77A was run?
A: The value was “with no effect”.

Variants of: B6
Conditions: with cdca3_human CDCA3, Q99618

Q: With H57D as the variant, how does the “effect of a mutation on the interaction” value read?
A: Its value is “with no effect”.

Q: With A56T as the variant, how does the “effect of a mutation on the interaction” value read?
A: The value was “with no effect”.

Variants of: B7
Conditions: with prp31_human PRPF31, Q8WWY3
Chain of prp31_human PRPF31, Q8WWY3 (Q8WWY3 whole entry): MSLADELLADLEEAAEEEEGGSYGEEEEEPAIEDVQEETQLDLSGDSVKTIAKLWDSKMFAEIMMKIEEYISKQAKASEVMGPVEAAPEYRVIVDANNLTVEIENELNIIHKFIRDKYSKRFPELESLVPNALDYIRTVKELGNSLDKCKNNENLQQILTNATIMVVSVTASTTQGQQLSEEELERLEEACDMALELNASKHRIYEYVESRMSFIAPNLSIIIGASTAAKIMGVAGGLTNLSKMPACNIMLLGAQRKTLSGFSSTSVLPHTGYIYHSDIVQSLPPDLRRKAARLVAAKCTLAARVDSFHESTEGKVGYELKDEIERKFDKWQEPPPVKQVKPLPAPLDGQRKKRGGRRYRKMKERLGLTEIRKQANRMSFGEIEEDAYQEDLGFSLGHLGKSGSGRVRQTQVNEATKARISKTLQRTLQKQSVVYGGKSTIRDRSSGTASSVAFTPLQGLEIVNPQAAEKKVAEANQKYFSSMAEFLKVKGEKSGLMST

Q: Which “effect of a mutation on the interaction” value does the source give for N207S here?
A: The value was “with no effect”.

Variants of: B7
Conditions: with echp_human EHHADH

Q: How did the “effect of a mutation on the interaction” value turn out when N207S was run?
A: Its value is “with no effect”.

Variants of: B8
Conditions: with creb3_human CREB3, O43889

Q: How did the “effect of a mutation on the interaction” value turn out when T137M was run?
A: The value was “with no effect”.
